Experimental data reported in patent US20230212587A1, “Mutant Hydroxyphenylpyruvate Dioxygenase Polypeptide, Encoding Gene Thereof and Use Therefor” (Beijing Dabeinong Biotechnology Co., Ltd., priority 2019, published 2023).
Numbering of substitutions follows the chain as printed. Names and notes keep the numbering of the source.

B1: BnHPPD-02: native Brassica napus HPPD, SEQ ID NO: 87 (protein, listed as Brassica napus)
chain: MGHENAAVCETQQHDDAASPGFKLVGFSKFVRKNPKSDKFKVKRFHHIEFWCGDATNVSRRFSWGLGMRFSAKSDLSTGNMVHASYLLTSGDLRFLFTAPYSPSLSAGEAQPSATASIPSFDHASCRSFFSSHGLGVRAVAIEVEDAESAFSISVANGAVPSSPPNVLNGAVTIAEVKLYGDVVLRYVSYYNGTVSFLPGFESVDDTSSFPLDYGIRRLDHAVGNVPELGPALTYLAGFTGFHQFAEFTADDVGTAESGLNSAVLANNDEMVLLPINEPVHGTKRKSQIQTFLEHNEGAGLQHLALMSEDIFRTLREMRKRSGVGGFDFMPSPPPTYYKNLKKRVGDVLSEEQIEECEELGILVDRDDQGTLLQIFTKPLGDRPTIFIEIIQRVGCMKRDEEGKVYQSGGCGGFGKGNFSELFKSIEEYEKTLEAKQLVG
modifications: BnHPPD Amino Acid Sequence
B2: BnHPPDm-F372A-02: Brassica napus HPPD mutant F372A, SEQ ID NO: 90 (protein)
chain: B1 chain with F376A
modifications: BnHPPDm-F372A Amino Acid Sequence
B3: MsHPPD-02: native Medicago sativa HPPD, SEQ ID NO: 99 (protein, listed as Medicago sativa)
chain: MAIETETQTQTGFKLVGFKNFVRANPKSDRFKVKRFHHVEFWCTDATNTARRFSHGLGMPIVAKSDLSTGNQTHASYLLRSGDLNFLFSAAYSPSISLSSPSSTAAIPTFSASNCFSFSASHGLAVRAVAVEVEDAELAFTTSVNNGAIPSSPPVILENHVKLAEVRLYGDVVLRYVSYNDPNPNQNPNLLFLPGFERVSDESSNSSLDFGIRRLDHAVGNVPELSSAVKYVKDFTGFHEFAEFTAEDVGTSESGLNSVVLANNEETVLLPMNEPVYGTKRKSQIETYLEHNEGAGLQHLALKSEDIFRTLREMRKRSGVGGFEFMPSPPVTYYRNLKNRVGDVLSDEQIKECEELGILVDRDDQGTLLQIFTKPIGDRPTIFIEIIQRVGCMLKDEEGKEYQKGGCGGFGKGNFSELFKSIEEYEKTLETRRTA
modifications: MsHPPD Amino Acid Sequence
B4: MsHPPDm-F372A-02: Medicago sativa HPPD mutant F372A, SEQ ID NO: 102 (protein)
chain: B3 chain with F372A
modifications: MsHPPDm-F372A Amino Acid Sequence
B5: ZmHPPD-02: native Zea mays HPPD, SEQ ID NO: 17 (protein)
chain: MPPTPTAAAAGAAVAAASAAEQAAFRLVGHRNFVRFNPRSDRFHTLAFHHVELWCADAASAAGRFSFGLGAPLAARSDLSTGNSAHASLLLRSGSLSFLFTAPYAHGADAATAALPSFSAAAARRFAADHGLAVRAVALRVADAEEAFRTSVAAGARPAFGPVDLGRGFRLAEVELYGDVVLRYVSYPDGAAGEPFLPGFEGVASPGAADYGLSRFDHIVGNVPELAPAAAYFAGFTGFHEFAEFTTEDVGTAESGLNSMVLANNSENVLLPLNEPVHGTKRRSQIQTFLDHHGGPGVQHMALASDDVLRTLREMQARSAMGGFEFMAPPTSDYYDGVRRRAGDVLTEAQIKECQELGVLVDRDDQGVLLQIFPKPVGDRPTLFLEIIQRIGCMERDEKGQEYQKGGCGGFGKGNFSQLFKSIEDYEKSLEAMQAAAAATAQGS
modifications: Zea mays; ZmHPPD Amino Acid Sequence (Zea mays)
B6: HaHPPD-02: native Helianthus annuus HPPD, SEQ ID NO: 93 (protein, listed as Helianthus annuus)
chain: MGTEATVAAVVAGDESDHPTSAFKLVGFKNFIRTNPMSDKFTVKNFHHIEFWCSDATNTARRFSWGLGMPIIFKSDLSTGNSTHASYLLRSGHLNFLFTAPYSPSISPTTTTASIPTFSHSASRHFTATHGLAVRAIAVEVEDAETAFAVSVANGAKPSSPPVTLGHNDVVLSEVKLYGDVVLRYVSYKNNTNNNNNNDNDNYIFLPGFEAMDKTSSFQELDYGIRRLDHAVGNVPELAPAVDYVKSFTGFHEFAEFTAEDVGTSESGLNSVVLACNSEMVLIPMNEPVYGTKRKSQIQTYLEHNEGAGVQHLALASEDIFRTLREMRKRSGVGGFEFMPSPPPTYYRNLKSRAGDVLSDEQIKECEELGILVDRDDQGTLLQIFTKPVGDRPTIFIEIIQRVGCMVKDDEGKVQQKAGCGGFGKGNFSELFKSIEEYEKTLEARSTTAAA
modifications: HaHPPD Amino Acid Sequence
B7: HaHPPDm-F372A-02: Helianthus annuus HPPD mutant F372A, SEQ ID NO: 96 (protein)
chain: B6 chain with F385A
modifications: HaHPPDm-F372A Amino Acid Sequence

Test system: Arabidopsis thaliana T1 plants
Experiment: Topramezone tolerance of transgenic Arabidopsis thaliana T1 plants (pesticide damage grade by bleached leaf area, score, resistance evaluation)
Assay type: in vivo
Details: HPPDs from different species; number of plants (of 16) in this grade; topramezone 25 g ai/ha (1x), 7 DAT
How it was run: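 Eighteen days after sowing, wild-type and HPPD-transgenic T1 Arabidopsis receive a topramezone spray at 1×, 2× or 4× field rate (25–100 g ai/ha) or water. Seven days later each plant is graded by its proportion of bleached leaf area.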

Row | Molecule | Classification and statistics of pesticide damage grade Grade 0 | Classification and statistics of pesticide damage grade Grade 1 | Classification and statistics of pesticide damage grade Grade 2 | Classification and statistics of pesticide damage grade Grade 3
1 | B1 | 0 | 0 | 0 | 16
2 | B2 | 0 | 4 | 12 | 0
3 | B3 | 0 | 0 | 0 | 16
4 | B4 | 5 | 7 | 4 | 0
5 | B5 | 0 | 0 | 0 | 16
6 | B6 | 0 | 0 | 0 | 16
7 | B7 | 0 | 8 | 8 | 0

Same assay, conditions: HPPDs from different species; number of plants (of 16) in this grade; topramezone 100 g ai/ha (4x), 7 DAT

Row | Molecule | Classification and statistics of pesticide damage grade Grade 0 | Classification and statistics of pesticide damage grade Grade 1 | Classification and statistics of pesticide damage grade Grade 2 | Classification and statistics of pesticide damage grade Grade 3
8 | B1 | 0 | 0 | 0 | 16
9 | B2 | 0 | 0 | 0 | 16
10 | B3 | 0 | 0 | 0 | 16
11 | B4 | 0 | 4 | 9 | 3
12 | B5 | 0 | 0 | 0 | 16
13 | B6 | 0 | 0 | 0 | 16
14 | B7 | 0 | 2 | 12 | 2

Same assay, conditions: HPPDs from different species; score for pesticide damage 0-100; topramezone 25 g ai/ha (1x), 7 DAT

Row | Molecule | Scores
15 | B1 | 100
16 | B2 | 58
17 | B3 | 100
18 | B4 | 31
19 | B5 | 100
20 | B6 | 100
21 | B7 | 50

Same assay, conditions: HPPDs from different species; score for pesticide damage 0-100; topramezone 100 g ai/ha (4x), 7 DAT

Row | Molecule | Scores
22 | B1 | 100
23 | B2 | 100
24 | B3 | 100
25 | B4 | 65
26 | B5 | 100
27 | B6 | 100
28 | B7 | 67

Same assay, conditions: HPPDs from different species; topramezone 25 g ai/ha (1x), 7 DAT

Row | Molecule | Resistance evaluation
29 | B1 | non-resistant (non-resistant plants (scores 68-100))
30 | B2 | poorly resistant (poorly resistant plants (scores 34-67))
31 | B3 | non-resistant (non-resistant plants (scores 68-100))
32 | B4 | moderately resistant (moderately resistant plants (scores 16-33))
33 | B5 | non-resistant (non-resistant plants (scores 68-100))
34 | B6 | non-resistant (non-resistant plants (scores 68-100))
35 | B7 | poorly resistant (poorly resistant plants (scores 34-67))

Same assay, conditions: HPPDs from different species; topramezone 100 g ai/ha (4x), 7 DAT

Row | Molecule | Resistance evaluation
36 | B1 | non-resistant (non-resistant plants (scores 68-100))
37 | B2 | non-resistant (non-resistant plants (scores 68-100))
38 | B3 | non-resistant (non-resistant plants (scores 68-100))
39 | B4 | poorly resistant (poorly resistant plants (scores 34-67))
40 | B5 | non-resistant (non-resistant plants (scores 68-100))
41 | B6 | non-resistant (non-resistant plants (scores 68-100))
42 | B7 | poorly resistant (poorly resistant plants (scores 34-67))
